Here are results for one molecule from article doi:10.1101/2020.10.27.356691 (bioRxiv, 2020).

The target of this experiment is T1, cytochrome P450 CYP124 from Mycobacterium tuberculosis (Mycobacterium tuberculosis, UniProt P9WPP3 1-428).
T1 sequence: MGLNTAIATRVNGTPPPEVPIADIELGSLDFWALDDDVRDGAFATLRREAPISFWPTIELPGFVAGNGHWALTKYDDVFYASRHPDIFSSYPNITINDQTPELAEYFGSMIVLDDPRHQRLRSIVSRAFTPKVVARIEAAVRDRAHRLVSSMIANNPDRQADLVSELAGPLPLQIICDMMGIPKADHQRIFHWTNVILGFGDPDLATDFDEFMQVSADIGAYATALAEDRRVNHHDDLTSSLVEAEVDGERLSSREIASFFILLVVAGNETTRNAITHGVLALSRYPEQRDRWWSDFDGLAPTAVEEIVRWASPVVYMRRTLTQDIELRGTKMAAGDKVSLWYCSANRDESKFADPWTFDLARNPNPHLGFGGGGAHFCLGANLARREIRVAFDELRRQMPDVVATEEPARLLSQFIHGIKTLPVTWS
Description: ITC. For orientation: ITC needs no label: the signal is the heat of the interaction.

B1: rubredoxin B (RubB) from Mycobacterium tuberculosis, wild type (natural protein)
chain: MNDYKLFRCIQCGFEYDEALGWPEDGIAAGTRWDDIPDDWSCPDCGAAKSDFEMVEVARS
One may read the Kd as the concentration at which binding is half-saturated. High values mean weaker binding, low ones tighter binding. Molecule B1 yielded a Kd of 12.8 µM. That is a double-digit micromolar value.
